Source: the supplement of paper PMC9170038

System: MS2 coat protein
Assay: apparent KD of MS2 coat protein; higher = weaker reporter binding
Conditions: Eterna round: R107
In short: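 For every design, apparent KD is the median of normalised binding-curve fits from its clusters. The RNA switches were transcribed on-chip from Illumina sequencing clusters and titrated with SNAP-549-labelled MS2 coat protein (twofold steps, 0.7 or 1.5 nM to 3 µM; 0.8–1.5 h to 10–20 min per step). Titrations used 100 mM Tris-HCl pH 7.5, 80 mM KCl, 4 mM MgCl2, without or with constant ligand.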

[1] = input ligand: theophylline 20 uM
[2] = input ligand: theophylline 2 mM
[3] = input ligand: tryptophan 2.4 mM

Sequence | apparent KD of MS2 coat protein (input ligand: arginine 13.2 mM) | apparent KD of MS2 coat protein [1] | apparent KD of MS2 coat protein [2] | apparent KD of MS2 coat protein [3] | apparent KD of MS2 coat protein (input ligand: none)
UAAUAAGUACCGGUCCUCAGAUCCUCAUGACGAGGACCGGUACGGCCGCCACUCGAAACAUGAGGAUCACCCAUGUAAUAAUAAC [Brourdmod03] | 23 nM | 77 nM | 45.2 nM | – | –
AUUUAUAGUUGUGAUACCAGACUUACAUGAGGAUCACCCAUGUUACUUAAAUGUUUUGAUGUCCCUUGGCAGCACUGUUUUUUUA [JR_Nu_ExcTheophyB_Sub029] | 16.1 nM | 22.6 nM | – | 16.4 nM | –
AAUGCCGGAUCGGCCGCCACUGGUUGGCUCUGUGUACAUGAGGAUCACCCAUGUCCAUCCCAAACCAGGACCGGGAUCUUUGUGU [Veonmale] | 14.6 nM | 17.4 nM | 13.5 nM | – | –
UUAUAAGUACCGGUCCUCAGAUCCUCAUGACGAGGACCGGUACGGCCGCCACUCGAAACAUGAGGAUCACCCAUGUAAUAAUACC [Brourdmod12] | 36.6 nM | 71.5 nM | 54.2 nM | – | –
ACUGGACAUGAGGAUCACCCAUGUGGCGAUACCAGUUUCAGCGGGAACCCUUGGCAGCGCGGUGCCGGCCAUAGAAGUUCUGGGA [theeternabot_sameState_MS2_Theo_A_39] | 42.1 nM | 56.1 nM | – | 40.6 nM | –
CUAUAUAUAUCGGCCGCCACUUACUCAUGAGGUAACAACAUGAGGAUCACCCAUGUUUGAGGAUCAAGGACCGGGAUAUAUAUAG [AstrosSSTryB#15] | 31.8 nM | 33.4 nM | 32.6 nM | – | –
UGGUACAUGAGGAUCACCCAUGUUCCAGAUACCAGACUCCCGGUGGUCCCUUGGCAGCUGGUGGUACAUGAGGAUCACCCAUGUG [Exclusion Theophylline A GF17] | 28.5 nM | 44.7 nM | – | 30.8 nM | –
GGUGGCGGGACUGAUACCAGCCACCACCGAUAGACCACAUGAGGAUCACCCAUGUUGGGUGGCCCUUGGCAGCAGUCUUGCGGCG [#1 Same State - Theophylline B Attempt #15 (HarryS)] | 85.5 nM | 491 nM | 81.5 nM | 1290 nM | 527 nM
AUAUAUACAUGAGGAUCACCCAUGUUAUUUCGAGGACCGGUACGGCCGCCACUCGAUAGAGUGGAAGUAACAUUUGUUAGAUGAU [JR_SSTryptoA_Sub013] | 12.8 nM | 17 nM | 16.3 nM | – | –
AUCUUUGAUGAUCUGGGAAAACCAGAUCGGCGAGGACCGGUACGGCCGCCACUCGUGUAUAAUAUACAUGAGGAUCACCCAUGUA [#20 Tryptophan A Same State] | 50 nM | 99 nM | 91.6 nM | 25.1 nM | 55.4 nM
UUUACGGGAAACCGAACUAAACAAAGGGAAGGAGCGCCAAACAAGGCAGGUAGGUCGCCCACAUGAGGAUCACCCAUGUGUUGGG [Exclusion Arginine A GF 25] | 32.6 nM | 67.9 nM | 64 nM | 53.2 nM | 60.3 nM
AUCGUACCUAAUGAUACCAGCAAGUGAUCAUAACAUGAGGAUCACCCAUGUAAUCAGUGAUGCCCUUGGCAGCAUAAUCGUUACA [Same State - Theophylline B (Freestyle 2)] | 94.7 nM | 218 nM | – | 169 nM | –
GGAUAGGACAGAAGGAGCGACAUGGCAGAAACUGCAAUCCUCCUACACGAGGAUCACCCGUGUCAGGUAGGUCGCUGUCCUAUCG [ArgXB 12 #Zipper #MS2Left #StaticStem #Blueprint] | 25.6 nM | 34.8 nM | 36.9 nM | 27.4 nM | 24.7 nM
GCGCGGCGAGUGCGGCGUGUUCCGCUCCGUCGAGGACCGGUACGGCCGCCACUCGACAUGAGGAUCACCCAUGUCGCCGCGCGCG [Exclusion - Tryptophan A Attempt #3] | 13.9 nM | 22.9 nM | 48.3 nM | 13.5 nM | 13.3 nM
AAAUAAAUAACUGAUACCAGUGGACUGACAUGAGGAUCACCCAUGUUGGGUUUUGUUGUCCACCCUUGGCAGCAGGGAUAUAAAA [#24 Exclusion-TheophyllineB] | 24.4 nM | 54.7 nM | 70.9 nM | 43.4 nM | 38.5 nM
AACGUAUACAGAAGGAGCGUGAUUUGUGUUACUCAUUCAUAUACAUGAGGAUCACCCAUGUCACAGGUAGGUCGCUGUAUUCGUA [JR_ExcArginiB_Sub022] | 39.8 nM | 128 nM | 87.1 nM | 53.8 nM | 166 nM
UUCGUUUGCGGAAGGAGCGACGGACAUCGGUGAACAACGCACAUGAGGAUCACCCAUGUACGUCAGGUAGGUCGCCGCUAAGAGU [XArg-B3] | 29.3 nM | 134 nM | 375 nM | 73.6 nM | 105 nM
AAGGUGAUCCUCGAUACCAGCUCAACAUGAGGAUCACCCAUGUAAGCCUGGAAACAGGCGAGCCCUUGGCAGCGAGUUACAUCAA [(M)'-(Theo1)-(Ms2)-(Theo2)-(M'')] | 32.9 nM | 78.2 nM | – | 18.6 nM | –
AUCGUACCUAGUGAUACCAGCAAGUGAUCAUAACAUGAGGAUCACCCAUGUAAUCAGUGAUGCCCUUGGCAGCAUAAUCGUUACA [Same State - Theophylline B (Freestyle 1)] | 118 nM | 228 nM | – | 173 nM | –
AUCUUUGGCGAUCUGGGAAAACCAGAUCGACGAGGACCGGUACGGCCGCCACUCGUGUAUAAUAUACAUGAGGAUCACCCAUGUA [#18 Tryptophan A Same State] | 27.8 nM | 61.1 nM | 64.7 nM | – | –
AAUAAUAAGGCGGCCGCCACUACACAUGAGGAUCACCCAUGUCUCGCGGGCUUGCGUUGGGAUUGUAGGACCGGGCCAAUAAUAA [Exclusion - Tryptophan B (Freestyle 11)] | 15.2 nM | 35.7 nM | 30.4 nM | – | –
AAAAGUAGGUCCAAUAAAACUACAUGUGAAGGAGCGCCCGAAAGGGCAGGUAGGUCGCACAUGAGGAUCACCCAUGUCCUACAAA [ArgEX 7 #OpenEnded] | 50.1 nM | 103 nM | 86.1 nM | 71.8 nM | 86.1 nM
UAUAUAUAAACAUGAGGAUCACCCAUGUAACGAGGACCGGUACGGCCGCCACUCGGCCGGCAAGGGAGAGGACGGGAAACCGUCG [ETA NP+V+V2 #27] | 12.5 nM | 19.3 nM | 15.9 nM | 17.1 nM | 13.4 nM
AACGUAUACAGAAGGAGCGUGAUUUAUUAUUCUUUAAGAUAUACAUGAGGAUCACCCAUGUCACAGGUAGGUCGCUGUAUUCGUA [JR_ExcArginiB_Sub025] | 31 nM | 42.3 nM | 36.7 nM | 34.6 nM | 34.3 nM
ACAUGAGGAUCACCCAUGUCAGGGCACGAUACCAGCUGAUCCGGUGGCCCUUGGCAGCGUGACGAGUGGUCAUGAGGAUCACACG [?fmullin] | 75.8 nM | 176 nM | 158 nM | 130 nM | 128 nM
AGCAACAAGUCGGCCGCCACUCUUUUAACAUGAGGAUCACCCAUGUUUAUAUCAUGGUUUUAAUAGAGGACCGGGACAGUUGCAU [JR_ExcTryptoB_Sub005] | 26.3 nM | 37 nM | 43.2 nM | – | –
CACAUGAGGAUCACCCAUGUGUAAUAUGAAGGAGCGUCGGAAAUGACAGGUAGGUCGCAUGAAAUGCAAGUGUGUGAGGUUGUGA [EAA NP+V+V2 #12] | 9.17 nM | 17.7 nM | 10.5 nM | 10.9 nM | 10 nM
ACAUUGCGCUCGGCCGCCACUGGCUUAUGAUUAUAAGCAUUAAUGAACAUGAGGAUCACCCAUGUCAGGACCGGGAGCGAACCAU [SSTryp B #7] | 13.6 nM | 17.7 nM | 14.9 nM | – | –
